# From the supplement of paper PMC12042874
# ± gives the uncertainty stated by the source.
# Test: amyloid nucleation score (Sup35N fusion, yeast selection) (log enrichment); library NNK3; higher = more nucleation; inactive = no reads after selection
# Method in brief: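 The nucleation score is the DiMSum log enrichment of output over input reads, centred on the mode score of non-aggregating sequences. Only sequences with 100 or more input reads were scored, using Illumina sequencing of input and output plasmid inserts. Psi-negative yeast expressing Sup35N fused to peptides of 20 random codons were induced 24 hours with 100 μM copper sulfate and grown 7 days at 30°C on medium lacking adenine and uracil.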
row,Substance,amyloid nucleation score
1,NRIVQAFPSIGGFATNVCLC,inactive
2,CVICSELLSSDCIIGDHRLR,1.7 ± 0.1
3,CRCGSKNTTVRTLLNRGYSE,inactive
4,TRLLWSAEFGEGNDMTSLKF,0.073 ± 0.87
5,DIFGSGYGYRGLSGRNYINM,inactive
6,LSAIFLCLSVCLGLHCVGLP,inactive
7,RQVFNAIAFFVLHR,-0.299 ± 0.69
8,STVEENIY,inactive
9,HLGDGTA,inactive
10,GFLDDYIIMDQLLHEFVKRF,inactive
11,RKEVLYSYRNHLK,inactive
12,GLMALNVMSVNTTEYCRAYW,0.56 ± 0.12
13,TLDVR,inactive
14,TLLLIVDNGVNPSLKEMMLL,inactive
15,ITYAQSLKLCRTRVIGGLMY,0.445 ± 0.2
16,GNEWRWWVLRNLLSCFSIP,inactive
17,CVSMKRN,2.07 ± 0.067
18,IKFSYKCS,inactive
19,SQHHPSGSSMWGKWIMLDPR,inactive
20,QYLHAGGHVIVGTWYEVNMG,1.36 ± 0.16
21,FILSAGSLHQLGRLVES,inactive
22,PYKTWTINVLLWNLSCTFLN,1.49 ± 0.096
23,RYDLCLDLALLRGNWWDLYL,inactive
24,VCGILAISGLLT,inactive

row,Substance,amyloid nucleation score
1,KREAFNQALADNHQLQMLYE,0.615 ± 0.12
2,TFRFLSRLSRTLWAFSKGLC,inactive
3,RMILTSQLLQKENGLSVTIN,0.853 ± 0.2
4,FDAFM,inactive
5,CSEGLYGVSTVICCIISSVN,2.2 ± 0.077
6,FGRYPMYIASLITNSKVFGC,-0.709 ± 0.41
7,EAGSPALRR,0.078 ± 0.7
8,VMAYRHAGRRFSDPKSIKIS,inactive
9,VNQLPRVSGAPIGLLWVCVK,inactive
10,HKMRRSLQFNEMGLFSPKVY,inactive
11,LGMGSSDYRGRYRSNS,inactive
12,SNQTWMVNET,inactive
13,HANCANRLNYLYVLYRAS,inactive
14,QRNNFLLTMVTCFDLKL,inactive
15,VFAMLLDMFDCARQWPAIPL,inactive
16,RRIPITFIACNCTRTCWQMI,0.394 ± 0.23
17,YLDVPTCDLSMPCYDINNNL,inactive
18,WWVIVGSAYVFDISIHFSSP,1.24 ± 0.096
19,PAMVCNPTQATRGKSRMVPL,inactive
20,RKLSAHLQEGD,inactive
21,ARLVAGCVMCHGSLWEMIRE,0.572 ± 0.28
22,IYCYRLALF,inactive
23,APRLFINY,inactive
24,MPVSYAG,inactive

row,Substance,amyloid nucleation score
1,VSWHNILMWTRTPL,inactive
2,EVKFYWKYKGV,0.561 ± 0.16
3,RCLEERH,inactive
4,CCRDVYTEGDM,inactive
5,WLWTLALNFTYKYFMCGKYK,inactive
6,SVCWVFYCFFSLWCRLSESR,inactive
7,MTYST,inactive
8,TWIMALLMILFNKVFVSSTR,inactive
9,LLVQLLLCKLKSMRLCCTVF,inactive
10,HAFYALDKKVPVTQLKFARQ,-0.315 ± 0.84
11,NLFGC,inactive
12,LFIRP,inactive
13,VDVLER,inactive
14,NVNVNAFKMSLELRAR,inactive
15,LIRGK,inactive
16,RTTVVYTLNLSGTNRRPCYN,1.66 ± 0.084
17,FSIFSVFEPWMISKFCP,inactive
18,QKAYKYSDI,inactive
19,MSLLASLLIMYIPIRYNVE,inactive
20,LIMGTVVLIL,1.54 ± 0.073
21,RFEYMGNVMES,inactive
22,INLPDASS,inactive
23,VYLRSISFVRTRQMVWCLLP,inactive
24,SLCMVTLDKAIRLYYNPMYF,2.18 ± 0.08

row,Substance,amyloid nucleation score
1,DSPMKLSALSHM,-0.261 ± 0.96
2,QTHMTFYVCMFRGTCNGNMC,2.1 ± 0.051
3,SYRVCMCSTLVVVVSSRGLS,0.823 ± 0.17
4,IVCCGSGSEEVGKLSGRIKN,inactive
5,WCLHNLVSMLRDQTSRVSFP,inactive
6,IIQALVF,inactive
7,MGMEIEQYNFTALLRD,inactive
8,PCSGDSLLVSNTKNRSL,inactive
9,YHRRLSTVLMGCMNRGLNYL,inactive
10,WVYWRKSSILSTHRNIVKHW,inactive
11,CLYPGRSWVTGAGITVWSLV,inactive
12,VSVYKNVAFFISWI,1.58 ± 0.09
13,PSSKFVGGIS,inactive
14,FGTSSEF,inactive
15,YSCVEDSGCVCKNPLVISEF,inactive
16,LSISIMWCFIFGYIFMCSRC,inactive
17,LAGCNPLASARFVWVI,inactive
18,SAYKKASVWGLRLQSSRS,inactive
19,VTILYASASMESLSLGLCGT,inactive
20,LCYALQEGRRWEGYEIRNSM,inactive
21,MGHDHHWSGSDMGS,inactive
22,YWPIHSSTAETDVTVRTRSY,1.01 ± 0.14
23,VMMDWILQIVAYSSDHTGSK,inactive
24,HKFFAYDGGDRKRGIFGGWL,1.25 ± 0.1

row,Substance,amyloid nucleation score
1,RKCLMMCDYCITLNM,2.29 ± 0.06
2,RLSIAASFLSLFRYVDFNSL,inactive
3,GSGVRGQRMSGKCR,0.164 ± 0.42
4,DAKKVCFGIKEDCWR,inactive
5,VPNSRIVTREGCWESACGIR,inactive
6,DISIPVLKRSFTCSMAYHC,inactive
7,FLMKLWM,1.66 ± 0.08
8,HQKALTAVMWFNNRRGGLFG,inactive
9,HLGKRNEKNTVLARLNFGQ,inactive
10,VISFLMKLRWYCTVHGSGGM,inactive
11,LSCSQKV,inactive
12,FKIMD,inactive
13,TFFNFVDGTSVWRFAGRHIY,inactive
14,LRHHSSSVAPVRVGILRCNS,inactive
15,DQVAYRGKSVYSYKCKTRWG,inactive
16,NIVSFVGDVFHSLLVG,inactive
17,WTQAGQIRMRKRSR,inactive
18,LDTDWLGYSSLP,inactive
19,AVDQGGLAYRGRRC,inactive
20,CFFLYCLNFFMRSIERDRDG,2.24 ± 0.054
21,IAFATFVVTFIMMEEMFFKN,inactive
22,YVFVRS,inactive
23,WGCEIRANLLITSWVSVTVG,inactive
24,VWTLAAVYYIIVRYSHKIRK,inactive

row,Substance,amyloid nucleation score
1,FLYYIPWDYL,inactive
2,SLMIG,inactive
3,SSCNLIWCFSSDAILKPLMQ,1.38 ± 0.093
4,PRDGERFLG,inactive
5,FCFYICGLGFY,inactive
6,TVLVGDMVVR,inactive
7,TYNRHSFLA,inactive
8,LVRSNGC,inactive
9,YRNVGHVCFDVEYPRVLFFA,inactive
10,NCICWASYQTGLE,inactive
11,MTWNTGLYSRGRHGFYGFST,1.26 ± 0.15
12,PHTSMDALEMSD,inactive
13,VNNVQCLYDAVREDSRWYWG,inactive
14,YTVILRVRGSMSAMQSMKFS,inactive
15,SFRSSSYEDNCLLVVDNVRT,inactive
16,RSVTNGQSCLRTVGILSFLA,inactive
17,WVHVRPKHCTSGLVTKFANM,inactive
18,LFFYSYTSFSIC,inactive
19,LEGSYPRADIAVNVFTVFTQ,inactive
20,SIYKE,inactive
21,TVYIAYTCVAVRSHSEHLFD,inactive
22,QWIGISNRLLYKDWLNWRYE,inactive
23,YSVCVNAWGLSTLSTLWCTY,inactive
24,AIERIFHCGETVIFMTGHLL,inactive

row,Substance,amyloid nucleation score
1,SLSYSSLCSALMWVHVKSYD,inactive
2,SPGPFR,inactive
3,STIYKPVYFRVVTGFLMW,inactive
4,SVVAYFLLIRYGDYRYHLQM,inactive
5,GLLPSKKILFLAILTHNRCW,inactive
6,WFFMNVLASENKYFVLCCKA,inactive
7,LIDMVVFNYKLVIRVRKGSL,inactive
8,IKIHYF,inactive
9,SKHSVAGQTKC,inactive
10,VLVSVILYIYYDDCFYSWSF,inactive
11,NDQKIPLARYLG,inactive
12,KTHCCC,inactive
13,ELFSVNKCDLALNTCLTVPG,2.6 ± 0.061
14,WKYWIWVFMNATYMDCVGML,inactive
15,PSHSLSGRCHV,inactive
16,NITVHVNRMKFCCMYAESHD,inactive
17,FNFNILTIWIDLLAQLGMT,1.85 ± 0.1
18,LFFKP,inactive
